Source: paper PMC10333326

Molecular target: NFAT5 (TonEBP) (UniProt O94916)
Test: co-immunoprecipitation, Western blot
Settings: reference: EZH2 wild type; sites S21

binding against the reference: weaker
Substance: EZH2 (from UniProt Q15910) EZH2 S21A
